Assay results reported in the supplement of paper PMC11780869.

Test system: Bacillus subtilis
Assay: cleaved RNA product abundance (RNA/gDNA barcode ratio) relative to median wild-type variant (ratio to wild type); higher = more accumulation of the downstream cleavage product
Procedure: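 MPRA in B. subtilis. Mutagenized RNase Y cleavage-site regions (9% mutation rate) were inserted into a barcoded reporter mRNA (truncated aprE or tetM). Cells were grown in LB at 37°C to OD600 0.3. The cleaved RNA isoform was gel-purified and its barcodes counted; the RNA:gDNA barcode ratio was normalised to the median wild-type variant, and the median over barcodes is reported per variant. The printed sequence is the variable window only; the reporter flanks are not printed.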

[1] = experiment (reporter, strain, medium): exp 2b: truncated aprE reporter, strain BJT200, cleavage site: cggR-gapA (positions -7 to +36 mutated)
[2] = experiment (reporter, strain, medium): exp 4a: truncated aprE reporter, strain BJT201 with 2% xylose (RNase J1 expressed), cleavage site: cggR-gapA (positions -7 to +36 mutated)
[3] = experiment (reporter, strain, medium): exp 8a: truncated aprE reporter, strain BJT201 with 2% xylose (RNase J1 expressed), cleavage site: glnRA (positions -5 to +31 mutated)
[4] = experiment (reporter, strain, medium): exp 6: tetM reporter, strain 168, cleavage site: cggR-gapA (positions -7 to +36 mutated)

Sequence | cleaved RNA product abundance [1] | cleaved RNA product abundance [2] | cleaved RNA product abundance [3] | other results
ACAGACGAAGGAGCCGCAAAGAAGTCATTAAGGAATGAATAATCCCTCAATATAAATATCTCTCACTTATTTAAA | 0.0849 | 0.139 |  | 
ACAGACGAAGGAGCCGCAAAGAAGTTATTTAGGCATGAATAATCCCTCAATATAAATATCTCTCACTTATTTAAA | 0.0926 | 0.135 |  | 
ACAGACGAAGGAGCCGCAAAGAAGTTATTAAAGGATGAATAATCCCTCATTATAAATATCTCTCACTTATTTAAA |  | 0.245 |  | 
CGACATGTCCCGCTTCTTTCATTAATCCGTAAGCAACTGTTTTGCTATATACAATTACCTTTTAAGAGGAGGAAT |  |  | 0.478 | 
ACAGACGAAGGAGCCGCAAAGCAGTTATTAAGGGATGAATAATCCCTCAAAATAAATATCTCTCACTTATTTAAA |  | 0.468 |  | 
CGACATGTCCCGCTTCTTTCATTAATCCGTTAGCAACTGTTTTGCTATATACATTTACGTTTTAAGAGGAGGAAT |  |  | 1.12 | 
CGACATGTCCCGCTTCTTTCATTAATTCGTTAGCAACTGTTTTGCTATATACATTTACCATTTAAGAGGAGGAAT |  |  | 1.22 | 
ACAGACGAAGGAGCCGCAAAGTAGTTATTAAGGGATGAATAATCCCTCAATATACATATCTCTCACTTATTTAAA |  | 0.664 |  | 
ACAGACGAAGGAGCCGCAAAGAAGTTATTAAGGGATGACTAATCCGTCAATATAAATATCTCTCACTTATTTAAA |  | 0.213 |  | 
ACAGACGAAGGAGCCGCAAAGAACTTATTAAGGGATGAATAATACCTCAATATAAATATCTCTCACTTATTTAAA | 0.0995 | 0.165 |  | 
ACAGACGAAGGAGCCGCAAAGAAGTTATTAAGGGATGAATAATGGCTCAATATAAATATCTCTCACTTATTTAAA |  | 0.0723 |  | 
CGACATGTCCCGCTTCTTTCATTAATCCGTTAGCAACTCTTTTGCTATAAACATTTACCTTTTAAGAGGAGGAAT |  |  | 1.3 | 
CGACATGTCCCGCTTCTTTCATTAATCCTTTAGCAACTGATTTGCTATATACATTTACCTTTTAAGAGGAGGAAT |  |  | 0.509 | 
CGACATGTCCCGCTTCTTTCATTAATCCGTTAGCAACTGTTTAGCTAAATACATTTACCTTTTAAGAGGAGGAAT |  |  | 0.212 | 
ACAGACGAAGGAGCCGCAAAGAAGTTATTAATGGACGAATAATCCCTCAATATAAATATCTCTCACTTATTTAAA | 0.0737 | 0.0953 |  | 
ACAGACGAAGGAGCCGCAAAGAAGTTAATAAGGGATGAATAATCCCTCAATATAAATATCTCTCACTTATTTAAA | 0.264 | 0.349 |  | cleaved RNA product abundance [4]: 0.555
ACAGACGAAGGAGCCGCAAAGAAGTTATTAAGGGATGAATAATCCCTCTGTATAAATATCTCTCACTTATTTAAA | 0.163 | 0.224 |  | 
ACAGACGAAGGAGCCGCAAAGAAGTTATTAAGAGATGAATAATCGCTCAATATAAATATCTCTCACTTATTTAAA |  | 0.0997 |  | 
ACAGACGAAGGAGCCGCAAACAAGTTATTAAGGGATGAATAATCCCACAATATAAATATCTCTCACTTATTTAAA | 0.109 | 0.255 |  | 

Sequence | cleaved RNA product abundance [1] | cleaved RNA product abundance [2] | cleaved RNA product abundance [3] | other results
ACAGACGAAGGAGCCGCAAAGAAGTTATTAAGGAATGAATAATCACTCAATATAAATATCTCTCACTTATTTAAA | 0.111 | 0.124 |  | 
ACAGACGAAGGAGCCGCAAAGAAGTTATTAAGGGATGAATAATGCCACAATATAAATATCTCTCACTTATTTAAA |  | 0.0904 |  | 
ACAGACGAAGGAGCCGCAAAGAAGTTATAAATGGATGAATAATCCCTCAATATAAATATCTCTCACTTATTTAAA | 0.113 | 0.165 |  | 
ACAGACGAAGGAGCCGCAATGAAGTTATTAAGGGATGAATAATTCCTCAATATAAATATCTCTCACTTATTTAAA | 0.505 | 0.517 |  | 
CGACATGTCCCGCTTCTTTCATTAATCCGTTAACAACTGTTTTACTATATACATTTACCTTTTAAGAGGAGGAAT |  |  | 0.222 | 
CGACATGTCCCGCTTCTTTCATTAATCCGTTAGCAACTGTTTAGATATATACATTTACCTTTTAAGAGGAGGAAT |  |  | 0.297 | 
ACAGACGAAGGAGCCGCAAAGAAGTTATTAAGGGATTAATAATCCTTCAATATAAATATCTCTCACTTATTTAAA | 0.431 | 0.39 |  | 
ACAGACGAAGGAGCCGCAAAGAAGTTCTTAAGGGAAGAATAATCCCTCAATATAAATATCTCTCACTTATTTAAA |  | 0.113 |  | 
ACAGACGAAGGAGCCGCAAAAAAGTTATTAAGGGTTGAATAATCCCTCAATATAAATATCTCTCACTTATTTAAA | 0.373 | 0.512 |  | 
ACAGACGAAGGAGCCGCAAAGAAGTTATAAAGGGACGAATAATCCCTCAATATAAATATCTCTCACTTATTTAAA |  | 0.326 |  | 
ACAGACGAAGGAGCCGCAAAGAAGTTATTAAGGGATGAATAAACCCTCATTATAAATATCTCTCACTTATTTAAA | 0.13 | 0.19 |  | 
ACAGACGAAGGAGCCGCCAAGAAATTATTAAGGGATGAATAATCCCTCAATATAAATATCTCTCACTTATTTAAA |  | 0.549 |  | 
ACAGACGAAGGAGCCGCAAAGAAGTAATTAAGGGATGAATTATCCCTCAATATAAATATCTCTCACTTATTTAAA |  | 0.355 |  | 
CGACATGTCCCGCTTCTTTCATTAATATGTTAGCAACTGTTTTGCTATATACATTTACCTTTTAAGAGGAGGAAT |  |  | 0.819 | 
ACAGACGAAGGAGCCGCAAAGAAGTTATTAAGGGATGAATACTCACTCAATATAAATATCTCTCACTTATTTAAA |  | 0.0953 |  | 
ACAGACGAAGGAGCCGCAAAGAAGTTATTAAGGGATGAATAATCCCCCAATATAAATAACTCTCACTTATTTAAA |  | 0.347 |  | 
ACAGACGAAGGAGCCGCAACGAAGTTATTAAGGGATGAATAATCCTTCAATATAAATATCTCTCACTTATTTAAA |  | 0.448 |  | 
ACAGACGAAGGAGCCGCAAAATAGTTATTAAGGGATGAATAATCCCTCAATATAAATATCTCTCACTTATTTAAA |  | 0.703 |  | 
CGACATGTCCCGCTTCTTTCATTAATCCGTGAGCAACTGTTTTGCTATATATATTTACCTTTTAAGAGGAGGAAT |  |  | 0.87 | 

Sequence | cleaved RNA product abundance [1] | cleaved RNA product abundance [2] | cleaved RNA product abundance [3] | other results
ACAGACGAAGGAGCCGCGAAGAAGTTATTATGGGATGAATAATCCCTCAATATAAATATCTCTCACTTATTTAAA |  | 0.357 |  | 
CGACATGTCCCGCTTCTTTCATTAATCGGTTAGCAACTGTTTTGATATATACATTTACCTTTTAAGAGGAGGAAT |  |  | 0.356 | 
CGACATGTCCCGCTTCTTTCATTAATCTGTTAGCAATTGTTTTGCTATATACATTTACCTTTTAAGAGGAGGAAT |  |  | 1.59 | 
CGACATGTCCCGCTTCTTTCATTAATCCGTTAGCAACTGTTTTGCTATCTAAATTTACCTTTTAAGAGGAGGAAT |  |  | 0.123 | 
ACAGACGAAGGAGCCGCAAAGAAGTTATTAAGGAATGAATAATCCCTTAATATAAATATCTCTCACTTATTTAAA | 0.68 | 0.588 |  | 
ACAGACGAAGGAGCCGCAAAGAAGTACTTAAGGGATGAATAATCCCTCAATATAAATATCTCTCACTTATTTAAA |  | 0.243 |  | 
CGACATGTCCCGCTTCTTTCATTAATCCCTTAGCAACTGTTTTGCTATATAGATTTACCTTTTAAGAGGAGGAAT |  |  | 0.355 | 
ACAGACGAAGGAGCCGCATAGAAGTTATTAAGGGATGAATAATACCTCAATATAAATATCTCTCACTTATTTAAA | 0.115 | 0.179 |  | 
ACAGACGAAGGAGCCGCAAAGAAGTTATGAAGGCATGAATAATCCCTCAATATAAATATCTCTCACTTATTTAAA | 0.108 | 0.116 |  | 
ACAGACGAAGGAGCCGCAAAGAAGTTATTAAGTGATGAATAATTCCTCAATATAAATATCTCTCACTTATTTAAA | 0.0685 | 0.14 |  | 
ACAGACGAAGGAGCCGCAAAGAAGTTAATAAGAGATGAATAATCCCTCAATATAAATATCTCTCACTTATTTAAA |  | 0.133 |  | 
CGACATGTCCCGCTTCTTTCATTAATCCGTTAACAACTGATTTGCTATATACATTTACCTTTTAAGAGGAGGAAT |  |  | 0.248 | 
ACAGACGAAGGAGCCGCAAAGAAGTTATTAAGTGATGAATTATCCCTCAATATAAATATCTCTCACTTATTTAAA | 0.104 | 0.249 |  | 
CGACATGTCCCGCTTCTTTCATTAATCCATTAGCAACTGTTCTGCTATATACATTTACCTTTTAAGAGGAGGAAT |  |  | 0.271 | 
CGACATGTCCCGCTTCTTTCATTAATCCGTAAACAACTGTTTTGCTATATACATTTACCTTTTAAGAGGAGGAAT |  |  | 0.159 | 
ACAGACGAAGGAGCCGCAAAGAAGTTATTAAGGGACGAATAATCCGTCAATATAAATATCTCTCACTTATTTAAA | 0.0596 | 0.072 |  | 
CGACATGTCCCGCTTCTTTCATTAATTCGTTAACAACTGTTTTGCTATATACATTTACCTTTTAAGAGGAGGAAT |  |  | 0.209 | 
ACAGACGAAGGAGCCGCAACGAAGTTATTAAGGGATGAATAAACCCTCAATATAAATATCTCTCACTTATTTAAA |  | 0.538 |  | 
ACAGACGAAGGAGCCGCAAAGAAGTTATTAAGGGAGGAATAATCCCTCAATATAAATATCTCTCACTTATTTAAA | 0.499 | 0.603 |  | cleaved RNA product abundance [4]: 0.591
